Series [1] in a line: expression in HeLaΔCD164 (SI Fig. S4). The conditions noted are these: glycan lost; control: WT CD164.

Read-outs that look alike come from different tables or passages of the source.

B1: rat CD164 (rCD164): T102N rCD164 (protein)
parent chain: MSGASRGLFWAATCLAALCLSAAQSNSSASPNVTDPPTTTSKVVPTTLTTTKPPETCESFNSCVSCVNATLTNNITCVWLDCHEANKTYCSSELVSNCTQKTSTDSCSVIPTTPVPTNSTAKPTTRPSSPTPTPSVVTSAGATNTTVTPTSQPERKSTFDAASFIGGIVLVLGVQAVIFFLYKFCKSKERNYHTL
With B1, the “other: support of virus infection” value (glycan gained) is listed as “increases”.

B2: CD164: N104Q hCD164PM (protein)
parent chain: MSRLSRSLLWAATCLGVLCVLSADKNTTQHPNVTTLAPISNVTSAPVTSLPLVTTPAPETCEGRNSCVSCFNVSVVNTTCFWIECKDESYCSHNSTVSDCQVGNTTDFCSVSTATPVPTANSTAKPTVQPSPSTTSKTVTTSGTTNNTVTPTSQPVRKSTFDAASFIGGIVLVLGVQAVIFFLYKFCKSKERNYHTL
For the protein B2, the “other: cell-cell membrane fusion” value (glycan lost) was “abolishes”.

B3: CD164: N104Q (protein)
parent chain: B2 parent chain
Regarding B3, where the note is “glycan lost”, the “other: support of virus infection” value is listed as “decreases”. The expression_or_secretion result in series [1] is given as “no change”.

B4: CD164: N77Q (protein)
parent chain: B2 parent chain
With B4, the “other: support of virus infection” value (glycan lost) is on record as “no change”. Further, the expression_or_secretion result in series [1] was “no change”.

B5: CD164: N94Q (protein)
parent chain: B2 parent chain
As to B5, the “other: support of virus infection” value (glycan lost) is given as “no change”. For the same protein, in series [1], the expression_or_secretion result is reported as “no change”.

B6: CD164: N72Q (protein)
parent chain: B2 parent chain
Regarding B6, for the setting “glycan lost”, the “other: support of virus infection” value is listed as “no change”. Further, in series [1], the expression_or_secretion entry is “no change”.

Source of the values: publication PMC8915965.
